From article PMC8887544

Experiments:
[1] = molecular target: (His)6-MBP-tagged Cas8e (P. aeruginosa, type I-E) (P. aeruginosa (PRD-10 genomic DNA)); assay: ITC; 25°C; 20 μM of either AcrIE4-F7 or (His)6-MBP tagged Cas8e in the cell, titrated with 150-200 μM of the partner, both directions; 20 mM HEPES pH 7.0, 150 mM NaCl, 1 mM TCEP, 5% glycerol; triplicate
[2] = molecular target: Cas8f:Cas5f heterodimer (Xanthomonas albilineans, type I-F Cascade subunit) (Xanthomonas albilineans); assay: ITC; 25°C; AcrIE4-F7 (250 μM) injected into Cas8f:Cas5f (35 μM) in the cell; 20 mM Tris-HCl pH 7.5, 150 mM NaCl, 1 mM TCEP

Substance	Kd [1] [nM]	dH [1] [kcal/mol]	stoichiometry N [1]	Kd [2] [nM]
AcrIE4-F7(D30K/E31K) (natural protein)	4800	-11.1	0.8	
AcrIE4-F7 (natural protein)	200	-14.7	1	26
AcrIE4-F7(Y20A) (natural protein)	3500	-5.6	1.1	
AcrIE4-F7^CTD (C-terminal domain of AcrIE4-F7, residues 53-119) (domain or fragment)				13

Further lines, with some results ahead:

Kd [1] [nM]	dH [1] [kcal/mol]	stoichiometry N [1]	Substance	Kd [2] [nM]
430	-11.7	1	AcrIE4-F7(E46K) (natural protein)	
140	-18.1	0.8	AcrIE4-F7^NTD (N-terminal domain of AcrIE4-F7, residues 1-52) (domain or fragment)	
400	-22.8	0.8	AcrIE4-F7(E12K/D13K) (natural protein)	
190	-12.8	0.9	AcrIE4-F7(E38K/D39K) (natural protein)	
